Assay results from patent US20220275417A1 (BARCODEBODY, published 2022).

B1: anti-CD4-FLAG (VHH)
VHH: EVQLVESGGGSVQPGGSLTLSCGTSGRTFNVMGWFRQAPGKEREFVAAVRWSSTGIYYTQYADSVKSRFTISRDNAKNTVYLEMNSLKPEDTAVYYCAADTYNSNPARWDGYDFRGQGTQVTVSS
notes: Secreted from Pichia pastoris with the alpha-factor signal, which is cleaved during secretion; also called Anri-CD4-FLAG; anti-CD4 nanobody with no barcode
B2: anti-CD4 with barcode 4-3 (VHH)
VHH: B1 VHH
notes: secreted from Pichia pastoris
B3: anti-CD4 with barcode 4-4 (VHH)
VHH: B1 VHH
notes: secreted from Pichia pastoris
B4: anti-CD4 with barcode 4-1 (VHH)
VHH: B1 VHH
notes: secreted from Pichia pastoris
B5: anti-CD4 with barcode 4-7 (VHH)
VHH: B1 VHH
notes: secreted from Pichia pastoris
B6: anti-CD4 with barcode 4-2 (VHH)
VHH: B1 VHH
notes: secreted from Pichia pastoris
B7: anti-CD4 with barcode 4-6 (VHH)
VHH: B1 VHH
notes: secreted from Pichia pastoris
B8: anti-CD4 with barcode 4-8 (VHH)
VHH: B1 VHH
notes: secreted from Pichia pastoris
B9: anti-CD4 with barcode 4-5 (VHH)
VHH: B1 VHH
notes: secreted from Pichia pastoris
B10: anti-CD4-FLAG-barcode 1 (VHH)
VHH: B1 VHH
notes: Secreted from Pichia pastoris with the alpha-factor signal, which is cleaved during secretion; also called anti-CD4 nanobody
B11: anti-GFP-FLAG-barcode 2 (VHH)
VHH: QVQLVESGGALVQPGGSLRLSCAASGFPVNRYSMRWYRQAPGKEREWVAGMSSAGDRSSYEDSVKGRFTISRDDARNTVYLQMNSLKPEDTAVYYCNVNVGFEYWGQGTQVTVSS
notes: also called anti-GFP nanobody

The binders below were run against T1, recombinant human sCD4 CF (manufactured by R&D Systems) (human, UniProt P01730 26-390, limits assumed) (assay: SPR, Biacore T-200, CD4 immobilized on chip, as in Example 2).
T1 construct: Immobilized on the Biacore sensor chip; also called recombinant CD4; CD4 antigen

Row | Binder | Kd | koff | kon
1 | B1 | 26 nM | 0.0037 s⁻¹ | 140000 M⁻¹ s⁻¹
2 | B2 | 26 nM | 0.0036 s⁻¹ | 140000 M⁻¹ s⁻¹
3 | B3 | 25 nM | 0.0029 s⁻¹ | 120000 M⁻¹ s⁻¹
4 | B4 | 21 nM | 0.003 s⁻¹ | 140000 M⁻¹ s⁻¹
5 | B5 | 24 nM | 0.0028 s⁻¹ | 110000 M⁻¹ s⁻¹
6 | B6 | 28 nM | 0.0028 s⁻¹ | 100000 M⁻¹ s⁻¹
7 | B7 | 28 nM | 0.0033 s⁻¹ | 120000 M⁻¹ s⁻¹
8 | B8 | 19 nM | 0.0029 s⁻¹ | 160000 M⁻¹ s⁻¹
9 | B9 | 24 nM | 0.0028 s⁻¹ | 180000 M⁻¹ s⁻¹

What follows are binders tested against T1, recombinant human sCD4 CF (manufactured …) (assay: SPR, Biacore T-200, antigen immobilized on chip, nanobody as analyte).

Row | Binder | Kd | koff | kon
10 | B1 | 42 nM | 0.0054 s⁻¹ | 68000 M⁻¹ s⁻¹
11 | B10 | 52 nM | 0.004 s⁻¹ | 77000 M⁻¹ s⁻¹

The binders below were run against T2, CD4 on the surface of HEK293 cells transfected with pCAGGS-CD4-myc (UniProt P01730 26-458, limits assumed) (assay: immunofluorescence staining of fixed CD4-expressing HEK293 cells, anti-FLAG-AF488 secondary).
T2 construct: whole, on cells; Cells were fixed with 4% paraformaldehyde before staining; also called CD4 surface expressing cells

Row | Binder | binding result
12 | B11 | no binding (tested: 3.3 µg/ml)

The binders below were run against T1, recombinant human sCD4 CF (manufactured …) (assay: simultaneous binding assay on CD4-immobilized magnetic beads, barcode cleaved by enterokinase and quantified by LC-MS/MS).

Row | Binder | binding result
13 | B11 | no binding (tested: 0.1 µM)
